Assay results as given in paper PMC3800017.

B1: Insulin A1 (dsDNA)
DNA 1: AGGCCCTAATGGGCCA
DNA 2: TGGCCCATTAGGGCCT
B2: Insulin A3 (dsDNA)
DNA 1: AGACTCTAATGACCCG
DNA 2: CGGGTCATTAGAGTCT
B3: Insulin E1 (dsDNA)
DNA 1: AGCCATCTGCCGACCC
DNA 2: GGGTCGGCAGATGGCT
B4: IAPP A1 (dsDNA)
DNA 1: GGAAATTAATGACAGA
DNA 2: TCTGTCATTAATTTCC
B5: IAPP A2 (dsDNA)
DNA 1: ATGAGTTAATGTAATA
DNA 2: TATTACATTAACTCAT

Target: Pdx1 homeodomain (Pdx1-HD) (Homo sapiens, UniProt P52945 146-206)
Assay: ITC

Chain of Pdx1 homeodomain (Pdx1-HD) (P52945 146-206): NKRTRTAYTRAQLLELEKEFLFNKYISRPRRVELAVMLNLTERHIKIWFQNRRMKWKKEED

Binder | Kd [nM]
B1 | 7 ± 2
B2 | 4 ± 1
B3 | 1300 ± 300
B4 | 22 ± 5
B5 | 27 ± 7
